US20240131153A1 (ABCENTRA, published 2024)

Target: oxidized LDL (oxLDL) (UniProt P04114 28-4563, limits assumed, oxidized LDL; kind of oxidation of the preparation used in the assay not stated)
Experiment: cell-based or functional assay

oxidized LDL (oxLDL), sequence (P04114 28-4563 limits assumed): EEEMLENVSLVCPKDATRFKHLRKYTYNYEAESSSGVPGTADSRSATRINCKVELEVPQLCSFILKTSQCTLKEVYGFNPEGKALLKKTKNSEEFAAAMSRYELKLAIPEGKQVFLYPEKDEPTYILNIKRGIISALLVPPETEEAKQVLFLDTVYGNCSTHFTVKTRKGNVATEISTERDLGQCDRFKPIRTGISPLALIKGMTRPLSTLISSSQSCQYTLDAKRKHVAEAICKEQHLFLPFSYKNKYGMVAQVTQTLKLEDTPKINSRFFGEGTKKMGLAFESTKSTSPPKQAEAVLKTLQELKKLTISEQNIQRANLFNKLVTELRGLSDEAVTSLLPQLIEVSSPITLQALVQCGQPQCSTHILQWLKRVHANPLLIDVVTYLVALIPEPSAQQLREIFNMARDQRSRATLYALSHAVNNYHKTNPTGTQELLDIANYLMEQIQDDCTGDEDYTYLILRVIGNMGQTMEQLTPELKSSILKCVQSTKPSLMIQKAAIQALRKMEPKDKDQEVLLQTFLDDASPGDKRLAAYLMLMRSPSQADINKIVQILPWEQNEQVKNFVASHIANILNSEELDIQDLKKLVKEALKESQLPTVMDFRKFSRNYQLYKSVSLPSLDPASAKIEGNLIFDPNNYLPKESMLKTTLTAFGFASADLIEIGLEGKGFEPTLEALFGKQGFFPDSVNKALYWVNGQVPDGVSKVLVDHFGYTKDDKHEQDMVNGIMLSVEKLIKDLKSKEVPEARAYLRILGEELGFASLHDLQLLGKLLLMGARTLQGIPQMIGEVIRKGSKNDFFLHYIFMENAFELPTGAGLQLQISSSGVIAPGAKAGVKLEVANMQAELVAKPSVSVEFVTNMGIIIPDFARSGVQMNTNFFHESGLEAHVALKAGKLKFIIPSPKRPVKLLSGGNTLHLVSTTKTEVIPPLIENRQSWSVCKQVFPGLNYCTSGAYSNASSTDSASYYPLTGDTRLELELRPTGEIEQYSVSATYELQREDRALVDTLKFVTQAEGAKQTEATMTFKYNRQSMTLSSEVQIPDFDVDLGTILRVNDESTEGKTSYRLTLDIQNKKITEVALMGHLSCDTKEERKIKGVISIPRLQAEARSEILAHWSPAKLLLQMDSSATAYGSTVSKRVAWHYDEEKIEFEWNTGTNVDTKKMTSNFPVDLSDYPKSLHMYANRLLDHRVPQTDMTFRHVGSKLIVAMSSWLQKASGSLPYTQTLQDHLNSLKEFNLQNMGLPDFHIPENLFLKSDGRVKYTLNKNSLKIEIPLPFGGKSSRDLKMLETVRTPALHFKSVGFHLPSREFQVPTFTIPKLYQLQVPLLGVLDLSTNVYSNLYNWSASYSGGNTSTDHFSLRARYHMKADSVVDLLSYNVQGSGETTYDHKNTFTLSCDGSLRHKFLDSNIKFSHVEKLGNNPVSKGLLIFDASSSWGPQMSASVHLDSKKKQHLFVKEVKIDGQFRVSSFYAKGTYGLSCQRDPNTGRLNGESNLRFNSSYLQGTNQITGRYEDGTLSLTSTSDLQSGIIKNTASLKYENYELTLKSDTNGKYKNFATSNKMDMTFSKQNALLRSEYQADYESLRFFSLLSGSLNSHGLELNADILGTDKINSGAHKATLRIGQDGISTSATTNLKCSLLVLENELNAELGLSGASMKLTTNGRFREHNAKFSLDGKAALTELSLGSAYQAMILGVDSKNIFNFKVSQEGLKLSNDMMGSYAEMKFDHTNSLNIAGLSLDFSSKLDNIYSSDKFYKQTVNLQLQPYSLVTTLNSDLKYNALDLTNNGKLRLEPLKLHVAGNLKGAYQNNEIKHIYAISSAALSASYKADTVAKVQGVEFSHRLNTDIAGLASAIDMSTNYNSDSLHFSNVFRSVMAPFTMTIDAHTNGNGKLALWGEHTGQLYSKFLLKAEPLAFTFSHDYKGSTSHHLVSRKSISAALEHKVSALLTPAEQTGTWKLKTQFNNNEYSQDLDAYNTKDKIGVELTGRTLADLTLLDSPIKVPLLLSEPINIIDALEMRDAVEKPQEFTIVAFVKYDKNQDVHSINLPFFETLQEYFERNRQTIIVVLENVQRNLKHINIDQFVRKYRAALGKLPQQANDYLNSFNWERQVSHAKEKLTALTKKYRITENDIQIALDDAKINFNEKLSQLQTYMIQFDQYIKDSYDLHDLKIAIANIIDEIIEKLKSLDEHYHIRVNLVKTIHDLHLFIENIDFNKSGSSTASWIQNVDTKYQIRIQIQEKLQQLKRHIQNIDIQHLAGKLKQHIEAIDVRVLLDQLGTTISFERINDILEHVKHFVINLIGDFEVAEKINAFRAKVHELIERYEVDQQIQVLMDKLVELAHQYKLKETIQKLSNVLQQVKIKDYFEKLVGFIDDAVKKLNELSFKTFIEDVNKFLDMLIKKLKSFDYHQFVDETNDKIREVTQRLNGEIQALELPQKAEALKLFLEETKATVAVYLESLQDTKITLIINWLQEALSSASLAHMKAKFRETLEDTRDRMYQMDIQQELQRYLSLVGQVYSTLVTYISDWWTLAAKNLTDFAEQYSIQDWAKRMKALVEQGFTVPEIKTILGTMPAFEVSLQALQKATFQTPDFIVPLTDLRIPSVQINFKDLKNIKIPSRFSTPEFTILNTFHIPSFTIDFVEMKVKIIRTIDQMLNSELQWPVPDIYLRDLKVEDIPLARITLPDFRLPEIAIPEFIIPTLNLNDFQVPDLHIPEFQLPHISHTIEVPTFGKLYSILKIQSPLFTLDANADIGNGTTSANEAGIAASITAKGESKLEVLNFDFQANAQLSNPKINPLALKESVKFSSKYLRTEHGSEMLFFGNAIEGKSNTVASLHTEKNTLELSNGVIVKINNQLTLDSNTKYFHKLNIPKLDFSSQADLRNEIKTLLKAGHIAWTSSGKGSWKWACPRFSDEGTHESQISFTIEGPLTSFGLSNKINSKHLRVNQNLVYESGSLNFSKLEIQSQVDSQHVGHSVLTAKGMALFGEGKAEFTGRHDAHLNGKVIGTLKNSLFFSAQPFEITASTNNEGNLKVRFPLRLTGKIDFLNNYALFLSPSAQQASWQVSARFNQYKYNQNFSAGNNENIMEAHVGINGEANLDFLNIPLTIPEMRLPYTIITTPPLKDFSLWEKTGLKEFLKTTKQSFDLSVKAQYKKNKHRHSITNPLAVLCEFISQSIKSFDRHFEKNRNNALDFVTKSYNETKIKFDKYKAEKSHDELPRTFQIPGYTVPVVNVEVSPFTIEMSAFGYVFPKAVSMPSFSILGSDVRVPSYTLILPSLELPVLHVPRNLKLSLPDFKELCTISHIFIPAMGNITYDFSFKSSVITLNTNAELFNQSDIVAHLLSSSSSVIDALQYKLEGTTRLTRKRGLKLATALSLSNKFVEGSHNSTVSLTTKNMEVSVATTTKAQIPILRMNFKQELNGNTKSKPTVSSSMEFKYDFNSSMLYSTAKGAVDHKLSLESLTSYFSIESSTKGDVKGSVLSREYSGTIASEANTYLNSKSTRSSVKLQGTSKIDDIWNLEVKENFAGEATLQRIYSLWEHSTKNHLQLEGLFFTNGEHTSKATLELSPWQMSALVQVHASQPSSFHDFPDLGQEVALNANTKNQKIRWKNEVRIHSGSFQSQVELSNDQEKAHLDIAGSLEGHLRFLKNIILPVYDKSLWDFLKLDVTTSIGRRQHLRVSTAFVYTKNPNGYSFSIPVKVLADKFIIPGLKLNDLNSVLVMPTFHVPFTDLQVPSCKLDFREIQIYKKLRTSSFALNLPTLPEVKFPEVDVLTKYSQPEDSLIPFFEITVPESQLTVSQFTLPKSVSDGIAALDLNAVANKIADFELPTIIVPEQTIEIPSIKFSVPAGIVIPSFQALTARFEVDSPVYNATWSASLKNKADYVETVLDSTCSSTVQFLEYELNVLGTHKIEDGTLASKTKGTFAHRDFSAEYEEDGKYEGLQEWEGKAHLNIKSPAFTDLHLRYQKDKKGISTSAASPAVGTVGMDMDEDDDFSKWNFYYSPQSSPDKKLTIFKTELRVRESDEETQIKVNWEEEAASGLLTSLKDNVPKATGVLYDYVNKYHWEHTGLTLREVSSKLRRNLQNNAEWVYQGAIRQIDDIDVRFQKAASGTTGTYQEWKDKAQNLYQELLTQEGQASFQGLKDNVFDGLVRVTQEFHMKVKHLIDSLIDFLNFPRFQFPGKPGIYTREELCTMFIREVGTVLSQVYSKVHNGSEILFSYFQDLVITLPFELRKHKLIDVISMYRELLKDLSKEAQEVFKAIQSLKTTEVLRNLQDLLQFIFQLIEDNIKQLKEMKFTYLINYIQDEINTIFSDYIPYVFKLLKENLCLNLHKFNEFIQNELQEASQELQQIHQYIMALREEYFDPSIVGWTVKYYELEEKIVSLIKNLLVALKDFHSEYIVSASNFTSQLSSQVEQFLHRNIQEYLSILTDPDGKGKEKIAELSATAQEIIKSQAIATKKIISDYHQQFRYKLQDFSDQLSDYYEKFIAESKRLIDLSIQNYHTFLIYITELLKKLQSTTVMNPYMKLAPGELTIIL

B1: orticumab (antibody, human IgG1, lambda, V domains shown)
VH: EVQLLESGGGLVQPGGSLRLSCAASGFTFSNAWMSWVRQAPGKGLEWVSSISVGGHRTYYADSVKGRSTISRDNSKNTLYLQMNSLRAEDTAVYYCARIRVGPSGGAFDYWGQGTLVTVSS
VL: QSVLTQPPSASGTPGQRVTISCSGSNTNIGKNYVSWYQQLPGTAPKLLIYANSNRPSGVPDRFSGSKSGTSASLAISGLRSEDEADYYCASWDASLNGWVFGGGTKLTVLG
- IC50 for MCP-1 inhibition: ~10 nM
